# Reference: patent US11690918B2, “Pyrrolobenzodiazepine-anti-CD22 antibody conjugates” (ADC THERAPEUTICS S.A., priority 2012, dated 2023)
# B1: Epratuzumab-A: ADC targeted to CD22, generated by conjugating anti-CD22 antibody Epratuzumab to warhead-linker A (conjugate)
# VH: QVQLVQSGAEVKKPGSSVKVSCKASGYTFTSYWLHWVRQAPGQGLEWIGYINPRNDYTEYNQNFKDKATITADESTNTAYMELSSLRSEDTAFYFCARRDITTFYWGQG
# VL: DIQLTQSPSSLSASVGDRVTMSCKSSQSVLYSANHKNYLAWYQQKPGKAPKLLIYWASTRESGVPSRFSGSGSGTDFTFTISSLQPEDIATYYCHQYLSSWTFGQG
# Legend:
# [1] = test system: SU-DHL-1 cells; experiment: In vitro cytotoxicity of ADCs, SU-DHL-1 (CD22 -ve control); type: cell-based; conditions: 4 days incubation, Alamar Blue
# Protocol: (§1) WSU-DLCL2 and SU-DHL-1 cells were from the Leibniz Institute DSMZ-German Collection of Microorganisms and Cell Cultures. Ramos and Daudi cells were from the American Type Culture Collection. Cell culture medium was RPMI 1640 supplemented with L-Glutamine and 10% FBS. Cells were grown at 37° C., 5% CO2, in a humidified incubator.
# (§2) The concentration and viability of cultures of suspended cells (at up to 1×10^6/ml) were determined by mixing 1:1 with Trypan blue and counting clear (live)/blue (dead) cells with a haemocytometer. The cell suspension was diluted to the required seeding density (generally 10^5/ml) and dispensed into 96-well flat bottomed plates. For Alamar blue assay, 100 μl/well was dispensed in black-well plates. […] After incubation for 4 days, cell viability was measured by either Alamar blue or MTS assay.
# (§3) AlamarBlue® (Invitrogen, catalogue number DAL1025) was dispensed (20 μl per well) into each well and incubated for 4 hours at 37° C. in the CO2-gassed incubator. Well fluorescence was measured at excitation 570 nm, emission 585 nm. Cell survival (%) was calculated from the ratio of mean fluorescence in the 4 ADC-treated wells compared to the mean fluorescence in the 4 control wells (100%).
# (§4) MTS (Promega, catalogue number G5421) was dispensed (20 μl per well) into each well and incubated for 4 hours at 37° C. in the CO2-gassed incubator. Absorbance was measured at 490 nm. […]
# [2] = test system: Daudi cells; experiment: In vitro cytotoxicity of ADCs, Daudi; type: cell-based; conditions: FIG. 1, Alamar Blue
# Protocol: as §1, §2, §3, §4
# [3] = test system: Ramos cells; experiment: In vitro cytotoxicity of ADCs, Ramos; type: cell-based, human; conditions: FIG. 1, Alamar Blue
# Protocol: as §1, §2, §3, §4
# [4] = test system: WSU-DLCL2 cells; experiment: In vitro cytotoxicity of ADCs, WSU-DLCL2; type: cell-based; conditions: FIG. 1, Alamar Blue
# Protocol: as §1, §2, §3, §4
# [5] = test system: Ramos xenograft; experiment: In vivo anti-tumour activity, Ramos mouse xenograft model; conditions: NCr nu/nu mice, single dose 1.0 mg/kg IV, FIG. 3
# Protocol: The CD22+(ve) human Burkitt's lymphoma-derived cell line Ramos was used in a mouse xenograft model to test the in vivo efficacy of the Epratuzumab-A ADC. As a non-CD22-binding control, the anti-HIV gp120 antibody, B12, linked to A was used in the same model.
# Procedures: • Set up CR female NCr nu/nu mice with l× Ramos-SPN tumor cells in 0% Matrigel sc in flank. • Cell Injection Volume is 0.1 mL/mouse. • Age at Start Date: 8 to 12 weeks. • Perform a pair match when tumors reach an average size of 100-150 mm^3 and begin treatment. • Body Weight: qd×5 then bi-wk to end • Caliper Measurement: bi-wk to end • Report any adverse reactions or death immediately. • Any individual animal with a single observation of >30% body weight loss or three consecutive measurements of >25% body weight loss will be euthanized. • Any group with two measurements of mean body weight loss of >20% or >10% mortality will stop dosing. The group is not euthanized and recovery is allowed. Within a group with >20% weight loss, individuals hitting the individual body weight loss endpoint will be euthanized. […] Animals are to be monitored individually. […]
# For the calculation of group mean tumor volumes the following rule was applied: when an animal exited the study due to tumor size, the final tumor volume recorded for the animal was included with the data used to calculate the mean volume at subsequent time points. […]
molecule,measurement,setting,value
B1,EC50 SUDHL1,[1],~6.776 µg/mL
same,cytotoxicity against Daudi cells,[2],significant cytotoxicity
same,cytotoxicity against Ramos cells,[3],significant cytotoxicity
same,cytotoxicity against WSU-DLCL2 cells,[4],significant cytotoxicity
same,anti-tumor activity (mean tumour volume),[5],most potent anti-tumor activity
